Measurements reported in the RNAGym collection of RNA variant scans (doi:10.1073/pnas.2313332121).

B1: TPR t1 (parent)
chain: GACCAAUCUGCCCUCAGAGCUCGAGAACAUCUUCGGAUGCAGAGGAGGCAGGCUUCGGUGGCGCGAUAGCGCCAACGUCCUCAACCUCCAAUGCAUCCCACCACAUGAUGAUGCCUGAAGAGCCUUGGUUUUUUG

Variants of: B1
Assay: polymerase ribozyme fitness, log enrichment relative to wild type (log ratio); higher = more active; in vitro selection for triplet polymerase activity
Outline: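 PCR was used to build mutant libraries for each subunit of a heterodimeric triplet polymerase ribozyme, which were then transcribed. A single in vitro selection round, in triplicate, used a frozen incubation at −7 °C and recovered extended constructs by gel excision, streptavidin beads and RT-PCR. Fitness is the logarithm of genotype enrichment relative to wild-type enrichment, averaged over replicates with inverse-variance weights. The logarithm is base 2, and after Illumina sequencing only genotypes with ≥10 input reads and ≥1 read per output were kept.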

Row | Variant | polymerase ribozyme fitness (log ratio)
1 | G61U U109A | -3.77
2 | C62G U112A | -0.878
3 | A66U C70U C88G | -2.66
4 | C62G G117C | -5.09
5 | C62G G117U | -3.34
6 | A66C U87G A118U U132A | -0.678
7 | C64A C88G G110U | -6.03
8 | G61U U112C | 0.845
9 | G63A C123G | 0.797
10 | G63A A105G C124G | -2.8
11 | G63U C79G | -3.17
12 | C62U U133A | -0.403
13 | G63C C98U | -2.15
14 | C62U A95G U96C | -1.53
15 | C62U A100C U112C | -1.92
16 | G63U U78G U81A A118U U129C | -4.83
17 | G63U A111U | -4.61
18 | C64U C88U U106A U130A | -0.803
19 | G63A G93U G110A | -4.5
20 | G63C U78G C98U | -2.14
21 | C62A C82A | -0.246

Row | Variant | polymerase ribozyme fitness (log ratio)
22 | C62G A75C A118U C123A G135U | -2.3
23 | C62A C99U C124A | -4.32
24 | C62U G63U U78G U81G | -5.08
25 | C64U C124G | 1.78
26 | G63U A74U | -4.43
27 | G61U U87C | 0.519
28 | C64U C82U | -2.09
29 | G63U A105G | -3.13
30 | A66G C101A C104A U112A C114U | -5.6
31 | C62U C85U C123A | -1.23
32 | G63C G117A | -1.45
33 | G63U C82U G127C | -1.96
34 | G63U A90C C101A | -4.63
35 | C62G C115G U125A | -3.31
36 | G63C U87A U130C G135U | -1.49
37 | G63U C114A U125A | -4.22
38 | A68G C97A | -7.14
39 | C62A C102A | -3.33
40 | G63A U112A G122C | -1.55
41 | G63A G120U | -0.702
42 | C62G U106A | -1.16

Row | Variant | polymerase ribozyme fitness (log ratio)
43 | A66G G117C C124U U132A | -6.03
44 | G63C C115G | -2.43
45 | C62U C98A | -5.51
46 | G63C C89A U116C | -3.78
47 | C62A C89A | -3.57
48 | G63U G135U | -2.37
49 | G63C G77C U129C | -3.13
50 | C62G C72U | -2.53
51 | A66C U92A | -6.51
52 | C64U C123A | -0.0204
53 | G63U C97U C98U G113A A118G U134G | -3.87
54 | C62A G128A | -2.62
55 | G61U U130G | -0.614
56 | G63A C123U G128C | -1.87
57 | G61U G127C | -0.698
58 | C64G C70A G93A C101A G120A G127A U131G | -6.32
59 | G63A U78G U112A | -2.03
60 | G63A U132A | -0.756
61 | C62U U116C | -1.06
62 | C62A A91C C98G A111C C115U A118U G122A U126G | -7.7
63 | C62A U112A C123G | -1.31

Row | Variant | polymerase ribozyme fitness (log ratio)
64 | C62U G93C | -1.8
65 | G63U U81G C97U U106A G120A U133C | -3.57
66 | G63A C79A | -3.48
67 | C62A C82U A91G C101G C123U G128U | -3.86
68 | A66U C115A | -1.05
69 | G63U G128U | -2.6
70 | G63U C88U | -2.31
71 | A66U G77A | -0.981
72 | C62U C70A C94G | -3.73
73 | C64U G117U | -1.28
74 | G63A C85A C115U | -4.85
75 | G63A C79A G128C | -4.78
76 | C62A C79A | -3.89
77 | C62A C79U | -0.345
78 | G63C U81G | -4.28
79 | C62A G135C | -0.579
80 | C62A G135U | -1.52
81 | G63C A111U | -3.26
82 | A68G C73G C82U | -5.21
83 | G63A C104A U132A G135U | -3.28
84 | G63U C97U | -1.62
